Experimental data reported in IntAct's records for PubMed 38123684.

B1: cAMP-regulated phosphoprotein 19 (Homo sapiens), P56211 (parent)
chain: MSAEVPEAASAEEQKEMEDKVTSPEKAEEAKLKARYPHLGQKPGGSDFLRKRLQKGQKYFDSGDYNMAKAKMKNKQLPTAAPDKTEVTGDHIPTPQDLPQRKPSLVASKLAG
partner: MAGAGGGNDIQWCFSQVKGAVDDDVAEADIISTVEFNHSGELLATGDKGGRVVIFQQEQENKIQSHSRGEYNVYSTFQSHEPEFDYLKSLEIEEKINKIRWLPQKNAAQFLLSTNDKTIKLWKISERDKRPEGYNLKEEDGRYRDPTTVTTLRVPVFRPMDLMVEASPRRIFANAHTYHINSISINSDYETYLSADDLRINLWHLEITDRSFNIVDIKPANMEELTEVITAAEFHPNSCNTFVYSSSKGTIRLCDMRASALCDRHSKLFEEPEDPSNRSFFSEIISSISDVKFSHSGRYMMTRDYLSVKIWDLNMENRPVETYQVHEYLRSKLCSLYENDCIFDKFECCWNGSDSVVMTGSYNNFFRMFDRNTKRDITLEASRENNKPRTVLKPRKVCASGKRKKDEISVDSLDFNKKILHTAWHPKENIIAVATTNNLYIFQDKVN

Variants of: B1
Conditions: with 2aba_human PPP2R2A

Variant	effect of a mutation on the interaction
MSAEVPEAASAEEQKEMEDKVTSPEKAEEAKLKARYPHLGQKPGGSDFLRKRLQKGQKYFDEGDYNMAKAKMKNKQLPTAAPDKTEVTGDHIPTPQDLPQRKPSLVASKLAG	with no effect
